Patent publication US7612188

Target: tissue factor (Innovin, Dade) (UniProt P13726)
Chain of UniProt P13726 (P13726 33-295): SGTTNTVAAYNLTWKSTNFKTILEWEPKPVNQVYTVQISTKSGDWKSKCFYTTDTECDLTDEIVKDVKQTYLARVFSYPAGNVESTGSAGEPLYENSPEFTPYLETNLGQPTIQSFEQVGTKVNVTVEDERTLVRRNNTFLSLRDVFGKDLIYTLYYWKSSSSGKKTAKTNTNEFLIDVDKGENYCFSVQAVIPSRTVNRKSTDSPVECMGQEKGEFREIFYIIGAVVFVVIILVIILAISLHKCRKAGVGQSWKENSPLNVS

Substance | competition clotting assay with FFR-VIIa (0 to 3.5 nM) and Innovin, compared with VIIa-Q11E33 | competition clotting assay with active site modified VIIa (0-3.2 nM), compared with the Q11E33 mutant
Human factor VIIa-T9Q11E33 | Human factor VIIa-T9Q11E33 exhibited a severe loss of competitive binding affinity | –
factor VII with leucine for phenylalanine at position 5 and the Q11E33 mutations | – | had much lower activity than the Q11E33 mutant
